Data reported in the DeepSol protein solubility set.

Test: soluble on expression in E. coli; label from the status in PepcDB or PDB records

Sequence | soluble on expression in E. coli
MVIRRTYMARDNTYYLDEALYISAQAPTGIELSFIGGGGPGSGGWGLSDGYPRGTSPTKNDIARVISTRRVLTEEFQIIEKDYSDKYAHETNQLPETINALKAQIKAEASSTNGAASPFVTEQQILSSRISQIRDGYLQILPDANNYFGVPAFYKRGDSMMSRFLDPGFFAATTGQELGVEWATRLQKSWEGTYRLHLEAQKHQALADELRALASQVDQEELSQQPLDLLQVIARRTAQIHTERQIHFDCLPNVLQHELGQTVIDDTLTLVQTFSTYLATAAALVQAKQSQIPPYQDQNPRINSPLSKPQLEGLLHLVDEQRLRRAGPRWQEYHLALALTESIRFLGVYAGATQNLMQRAAEVENLQAQLAAQEEAARQQAEAERLAAEAERQRQEALRRSVSYINEARLAVSTPAVIPIGATTFAVAEAAYSALAESIAAALTRLVATTVPSVAVGTLAMAWPSTLGNSERQYLISTPLDSLSPAGGPDLAALAASSTSIDLPYLLAGVENENELDLYVVPSGKPVAVRAATFDSERQVYSLALDNPQRILTWTPASAPGGDEGNSTSLPLVPPGTVVYTGSSLNPVVTEQEGYPALDLLDQERLIITFPMDSGLPPILVVFKSPRYEAGTSTGHGAQVSDTWRKEAASLEGAPIPAQIAELLKSREFRNFDAFRRQFWKAVANDPELSKQFDEMSLSRMRKNGYSPIVDFPDSHLSQKTFILHHVIPISEGGGVYDMDNIRIVTPLSHNSIHYGTKPLEHHHHHH | not soluble
MVLFTGKTVEEAIETGLQELGLSRLKAHIKVISKEKKGFLGFGKKPAQVDIEGISDKTVYKADKKATRGVPEDINRQNTPAVNSADVEPEEIKATQRLEAEDTKVVPLMSEDSPAQTPSNLAETVTETKAQQPSIPVEESEVPQDAGNDGFSKDIEKAAQEVSDYVTKIIYEMDIEATVETSNNRRQINLQIETPEAGRVIGYHGKVLKSLQLLAQNFLHDRYSKNFSVSLNVHDYVEHRTETLIDFTQKVAKRVLESGQDYTMDPMSNSERKIVHKTVSSIEGVDSYSEGNDPNRYVVVSLQR | not soluble
MGHHHHHHSHKIRVAHTPDADDAFMFYAMTHGKVDTWLEIEHVIEDIETLNRKAFNAEYEVTAISAHAYALLDDKYRILSAGASVGDGYGPVVVAKSEISLDGKRIAVPGRYTTANLLLKLAVEDFEPVEMPFDRIIQAVLDEEVDAGLLIHEGQITYADYGLKCVLDLWDWWSEQVKLPLPLGLNAIRRDLSVEVQEEFLRAMRESIAFAIENPDEAIEYAMKYSRGLDRERAKRFAMMYVNDYTYNMPESVDAALKKLYEMAEAKGLI | not soluble
METIIHKIRLFDVAQADAFEFWVQNVDYATCPDLPSVVRFDVHRASLQANAPYHYVEVIKITDRAAFDADMETSTFAGLVQAFSRMAEVVEELAGEQLGSGYAAG | soluble
MGSDKIHHHHHHMKPEIALNLWQLLWQEYSARVNHARTYQQMITTAGGTVANDHIAFRSLRLLVDSPQGEVNLGIDYLAQFAEALGYVAAGEYNFAQTHLYARYYRHPQQEEFNLPKLFISELIVDELPANIAQLISKTVSAIPHQLASPVTLLKKDAEIETIAKQLQQVFTRPWLPPRRSVVEEVNQVTQYGAWVLLHGYGVNHFTGYVNGQNTPEYPDIDTTASGLAHLGVPMKAEIEGNVACGLRQTATQAVTEMVTVLDDNSGVEIQIPWTYAYYEIAQRYPVEVEPGKQILFDAFLGSNAQQLFEMTRLSK | not soluble
SAVVPASLSGQDVGSFAYLTIKDRIPQILTKVIDTLHRHKSEFFEKHGEEGVEAEKKAISLLSKLRNELQTDKPFIRLVEKFVDTDIWNQYLEYQQSLLNESDGKSRWFYSPWLLVECYIDRRIHEAIIQSPPIDYFDVFKESKEQNFYGSQESIIALCTHLQQLIRTIEDLYENQLKDEFFKLLQISLWGNKCDLSLSGGESSSQNTNVLNSLEDLKPFILLNDMEHLWSLLSNCKKTREKASATRVYIVLDNSGFELVTDLILADFLLSSELATEVHFYGKTIPWFVSDTTIHDFNWLIEQVKHSNHKWMSKCGADWEEYIKMGKWVYHNHIFWTLPHEYCAMPQVAPDLYAELQKAHLILFKGDLNYRKLTGDRKWEFSVPFHQALNGFHPAPLCTIRTLKAEIQVGLQPGQGEQLLASEPSWWTTGKYGIFQYDGPL | not soluble
MGSDKIHHHHHHMSQATAKVNREVQAFLQDLKGKTIDHVFFVACGGSSAIMYPSKYVFDRESKSINSDLYSANEFIQRNPVQLGEKSLVILCSHSGNTPETVKAAAFARGKGALTIAMTFKPESPLAQEAQYVAQYDWGDEALAINTNYGVLYQIVFGTLQVLENNTKFEQAIEGLDQLQAVYEKALKQEADNAKQFAKAHEKESIIYTMASGANYGVAYSYSICILMEMQWIHSHAIHAGEYFHGPFEIIDESVPFIILLGLDETRPLEERALTFSKKYGKKLTVLDAASYDFTAIDDSVKGYLAPLVLNRVLRSYADELAEERNHPLSHRRYMWKVEY | not soluble
MGSDKIHHHHHHMAEYFQDDLGFRPFNAQVNHCTRDLGFRLYEPSDVLFASFSDESGMRTYVRTLSFILSKAVADILPGSKLFIEHSLSNGYYCQIKNAHMITPGEIVRIKERMESLIVADIPFRAHCERTEEVAAMFRSMGYEDKADLLETKGMPYSRYYDLDGYPDYYYGSLAPSTGYIGLFGLEPYLDGVLLRIPRRDKPEELAPFVPQPMMRQVFADHDRLLDILQVTHVGSLNKAVDRNDISTMVQVSEAMQEKQIAAIADDIAHKYKEGVRVVLISGPSSSGKTTFCKRLQTQLLTNYIRPYGLSLDDYFINREDSPRDESGDYDFESLYALDLPLFNKDLKQMIAGEEVSLPTYDFATGMRVYKGNTIQLKDGDILILEGIHALNPELIPGVPESSTYKIYVSALTAIGLDAHNRIPSTDNRLIRRLVRDYRYRNYSGLGTLRRWQSVRRGEEKWVFPFQENAHVMFNSAMLYELAVLRAYAEPILQAIPRNEPEYAEARRLLRFLSSFRMIPARLLPNNSLMREFLGGSTFHY | not soluble
MANSITADEIREQFSQAMSAMYQQEVPQYGTLLELVADVNLAVLENNPQLHEKMVNADELARLNVERHGAIRVGTAQELATLRRMFAIMGMYPVSYYDLSQAGVPVHSTAFRPIDDASLARNPFRVFTSLLRLELIENEILRQKAAEILRQRDIFTPRCRQLLEEYEQQGGFNETQAQEFVQEALETFRWHQSATVDEETYRALHNEHRLIADVVCFPGCHINHLTPRTLDIDRVQSMMPECGIEPKILIEGPPRREVPILLRQTSFKALEETVLFAGQKQGTHTARFGEIEQRGVALTPKGRQLYDDLLRNAGTGQDNLTHQMHLQETFRTFPDSEFLMRQQGLAWFRYRLTPSGEAHRQAIHPGDDPQPLIERGWVVAQPITYEDFLPVSAAGIFQSNLGNETQTRSHGNASREAFEQALGCPVLDEFQLYQEAEERSKRRCGLL | not soluble
MGSDKIHHHHHHMIPFNKPHLTGKEVHYIYEAVHSGKISGNGIFTKKCHDFFTSTYGFTKTLMTSSCTDALEMSSLLMDIQPGDEIILPTFTFVSTANAFVLRGAKLVFVDSLATEPNMNVELIEGLITSKTKAIVVVHYAGVACDMDVVMNIAKKYQLFVVEDAAQAISSYYKDKPLGGIGDFGAFSFHETKNIISGEGGLLAINNSDYCNRSEIIWEKGTNRSAFFRGETDKYGWVDVGSSFLPSEIISAFLYAQLENVAEIQAKRLEIWNTYYNTLSPLAEHKKLRLPYIPAYATNNAHMFYVICNSLEERTALIDYLKAHNILAVFHYLSLHKSPYFSDKHDGRSMDYADQYAETLVRLPLFYDLSTEDQEFICTKILSFYSEKI | not soluble
MSLARNLKADKTKTIGVIVRDITGFDTSRTIRGVDDFCKGCDYNALIYNTDFDPETEAKSLEALYQMRVDGIIIASSGQNNTLISEYIDKGMPIVHFQLEHDGSEKNLILSDYRQAAFDATEYLIKLGHKRICFMTQDFKNVKSRNERYSGYVAALKKYDIVQDPALIQYWQRETGFDHSPKSVLESAAAPTAFFTQHLAITTELLTHLNQENITIPDDVSLIGFDDIPMAEFFKVPVTVIKQEPYIIGKEAAKLLLEKVNDKNRHSQKIMISCSITERQSCTEGHHHHHH | soluble
QLLKVCMKLPKIDWYLGLSCPSNDMPLYLMRLFSRKPVVQMIHGPVGVARSSGYCLVKASAIYYLSNTRESLINALQAYLKTPKPATERYWSTLNASTFVNGLSRERWPKQANPISNRVFWAASLLKWKNVDLLLDALTLENTTTIQSTICYIKPNVPGVEYSTPDFNTKGVDWYESPNNLNELRAQCGVFVSTSVNEP | not soluble
MPLNRNHSELRSGKVNLKNGDPFTIALFGVDSDEKRKQQGGGERSDTIMVLSINPKEKKTELVSIPRDTKAEIAGRGTEEKINHAYAYGGPNMAVKTIEKLMNVPIDHYATIDMDGLHDMIDTLGGVDVVSNSTFTMGANHFVKGEKTHVDGDAAMDFIRSRKEDGAGGDFGRQERQQLILEAMADKMTSASSITHFNTLMNQIQKNVKTDLKLGDLNTIRTKYKDANDQVNRHQLEGEGGIQNDGLYYFIPSDASKNENTQLLRDNLNLLEHHHHHH | soluble
CVIFPVEIDVSQTIIRDCQVDKQTRELVYINKIMNTQLTKPVLMMFNISGPIRSVTRKNNNLRDRIKSKVDEQFDQLERDYSDQMDGFHDSIKYFKDEHYSVSCQNGSVLKSKFAKILKSHDYTDKKSIEAYEKYCLPKLVDERNDYYVAVCVLKPGFENGSNQVLSFEYNPIGNKVIVPFAHEINDTGLYEYDVVAYVDSVQFDGEQFEEFVQSLILPSSFKNSEKVLYYNEASKNKSMIYKALEFTTESSWGKSEKYNWKIFCNGFIYDKKSKVLYVKLHNVTSALNKNVILNTIKA | soluble
MAHHHHHHMCAKLRDSANISSLRKERDCWQREVARVSDAVRVLCGGANICSNVESPTEWAESLCEAVQDGQAALVCLSLELWTGGTWAGIQGFKEQLTAYVGACASAAKEAAERVEALEVEVLRLKESEASLSARCENTEAHARNVEEDLKRASTQAERVSELEQETSDLRTRCNLLRKELQRQREAMQRDRPQPHETANSETAASPITENASAVQSVLLAAAGCVSERDVATFVGSRGSQDGSLKLSKVGAELLIKENAELKRENAHNNGVIAQYIRELEGYKANERVQLSIEYLRNIVQQYLCAAEDLRPKMIPAICTVLEFSSKQKEDVQTANPRCPRFH | soluble
EQSSSEIKIVRDEYGMPHIYANDTWHLFYGYGYVVAQDRLFQMEMARRSTQGTVAEVLGKDFVKFDKDIRRNYWPDAIRAQIAALSPEDMSILQGYADGMNAWIDKVNTNPETLLPKQFNTFGFTPKRWEPFDVAMIFVGTMANRFSDSTSEIDNLALLTALKDKYGVSQGMAVFNQLKWLVNPSAPTTIAVQESNYPLKFNQQNSQTAALLPRYDLPAPMLDRPAKGADGALLALAAGKNRETIAAQFAQGGANGLAGY | soluble
SLSGGKYVDSEGHLYTVPIREQGNIYKPNNKAMADELSEKQVYDAHTKEIDLVNRDPKHLNDDVVKIDFEDVIAEPEGTHSFDGIWKASFSTFTVTKEG | soluble
